Source: paper PMC8177754

Substrate: Nc1nc2c(ncn2[C@@H]2O[C@@H]3COP(=O)(O)O[C@H]4[C@@H](O)[C@H](n5cnc6c(N)ncnc65)O[C@@H]4COP(=O)(O)O[C@H]3[C@H]2O)c(=O)[nH]1
Experiment: purified protein
Type: biochemical, Shewanella oneidensis
Conditions: pH 8.0

B1: (Shewanella oneidensis MR-1) (protein)
chain: MNAFLPHDFKVYMDVRHALLAVATALDFVGVDDLHHGHRVAYMAYECASVLGWPDEKKQFAYFAGLIHDCGVSSSEEHLRLLKLMQPEDAHCHSKRGYEALLECPILDVFAPIVLYHHTPWLELQSHDLSVFERDIAALIFLADRTDFLRARYTHGCHEELITLHESMVAENLLAHCGTLFEPEMVNAMCQLVKKDGFWYNMDATHIELLGLEFKANHFYDKELDIGGVKQLARFLARIVDAKSPFTFHHSEKVALLAKLVAKDCGISDTDAELLYVAGLLHDVGKLKTPDLLLHKEGKLTKEEYSIVKRHTVDTEHTLHRFFPKSVIGEWASNHHERLDGSGYPFSKRQEQLDLPSRILAVVDVFQALTQKRPYRGSLSLSEIYDIMQPMVDKGQLDAGVYSILLADIDNFYHLSTQEFQT
- Km: 119 ± 60 µM
